Results reported in US20190248900A1 (Y BIOLOGICS, published 2019).

B1: PD1-72D10 (antibody, V domains shown)
VH: QVQLVESGGGVVQPGRSLRLSCAASGFTFSSYAMHWVRQAPGKGLEWVAVISYDGSNKYYADSVKGRFTISRDNSKNTLYLQMNSLRAEDTAVYYCTTTTFDSWGQGTLVTVSS
VL: DIVMTQTPLSLPVTPGEAASISCRSSQSLLDSEDGNTYLDWYLQKPGQSPQLLIYTLSHRASGVPDRFSGSGSGTDFTLKISRVEAEDVGIYYCMQRVEFPFTFGQGTKLEIK
B2: PD1-45D6(A/4C1) (antibody, V domains shown)
VH: QVQLVESGGGVVQPGRSLRLSCAASGFTFSSYAMHWVRQAPGKGLEWVAVISYDGNDKYYADSVKGRFTISRDNSKNTLYLQMNSLRAEDTAVYYCVPTTFEYWGQGTLVTVSS
VL: DIVMTQTPLSLPVTPGEPASISCRSSQSLLDSDDGNTYLDWYLQKPGQSPQLLIYTLSHRASGVPDRFSGSGSGTDFTLKISRVEAEDVGIYYCMQRVEFPFTFGQGTKLDIK
B3: PD1-49A2(A/1F12) (antibody, V domains shown)
VH: QVQLVESGGGVVQPGRSLRLSCAASGFTFRNYAMHWVRQAPGKGLEWVAVISYDGQHKYYADSVKGRFTISRDNSKNTLYLQMNSLRAEDTAVYYCTTTTFDSWSQGTLVTVSS
VL: DIVMTQTPHSLPVTPGEPASISCRSSQSLLDSEDGNTYLDWYLQKPGQSPQLLIYTLSHRALGVPDRFSGSGSGTDFTLKISRVEAEDSGIYYCMQRIEFPYTFGQGTKLEIK
B4: PD1-49A2(A/2A11) (antibody, V domains shown)
VH: QVQLVESGGGVVQPGRSLRLSCAASGFTFRSYAMHWVRQAPGKGLEWVAVISYDGQDKYYADSVKGRFTISRDNSKNTLYLQMNSLRAEDTAVYYCTTTTFDSWGQGTLVTVSS
VL: DIVMTQTPLSLPVTPGEPASISCRSSQSLFDSDDGNTYLDWYLQKPGQSPRLLIYTLSHRALGVPDRFSGSGSGTDFTLKISRVAAEDVGLYYCLQRMGFPYTFGQGTKLEIK
B5: PD1-49A2(A/1H4) (antibody, V domains shown)
VH: QVQLVESGGGVVQPGRSLRLSCAASGFTFPIYAMHWVRQAPGKGLEWVAVISYDGAHKYYADSVKGRFTISRDNSKNTLYLQMNSLRAEDTAVYYCTTTTFDSWGQGTLVTVSS
VL: DIVMTQSPLSLPVTPGEAASISCRSSQSLLDSEDGNTYLDWYLQKPGQSPQLLIYTLSHRASGVPDRFSGSGSGTDFTLKISRVEAEDSGIYYCMQRVEFPYTFGQGTKLDIK
B6: PD1-74A01 (antibody, V domains shown)
VH: QVQLVESGGGVVQPGRSLRLSCAASGFTFSSYAMHWVRQAPGKGLEWVAVISYDGSNKYYADSVKGRFTISRDNSKNTLYLQMNSLRSEDTAVYYCVPTTFEYWGQGSQVTVSS
VL: DIVMTQTPLSLPVTPGEPASISCRSSQSLLDRGGGHTYLDWYLQKPGQSPQLLIYTLSHRASGVPDRFSGSGSGTDFTLKISRVEAEDVGIYYCMQRKEFPLTFGPGTKLEIK
B7: PD1-74H12 (antibody, V domains shown)
VH: QVQLVESGGGVVQPGRSLRLSCAASGFTFSSYAMHWVRQAPGKGLEWVAVISYDGSNKYYADSVKGRFTISRDNSKNMLYLEMNSLRAEDTAVYYCVPTTFEYWGQGSQVTVSS
VL: DIVMTQTPLSLSVTPGEPASISCRSSQSLLDSDDGNTYLDWYLQKPGQSPQLLIYTLSHRASGVPDRFSGRGSHTDFTLTISSVEAEDVGVYYCMQRIHFPLTFGQGTRLEIK
B8: PD1-45D6(A/3G1) (antibody, V domains shown)
VH: QVQLVESGGGVVQPGRSLRLSCAASGFTFSSYAMHWVRQVPGKGLEWVAVISYDGNDKYYADSVKGRFTISRDNSKNTLYLQMNSLRAEDTAVYYCVPTTFEYWGQGSQVTVSS
VL: DIVMTQTPLSLPVTPGEPASISCRSSQSLLDSEDGNTYLDWYLQKPGQSPQLLIYTLSHRASGVPDRFSGSGSGTDFTLEISRVEAEDVGVYYCMQRVEFPFTFGQGTKLDIK
B9: PD1-49A2(A/2B10) (antibody, V domains shown)
VH: QVQLVESGGGVVQPGRSLRLSCAASGFTFLVYAMHWVRQAPGKGLEWVAVISYDGSHKYYADSVKGRFTISRDNSKNTLYLQMNSLRAEDTAVYYCTTTTFDSWGQGTLVTVSS
VL: DIVMTQTPLSLPVTPGEPASISCRSSQSLLDSDDGNTYLDWYLQKPGQSPQLLIYTLSHRASGVPDRFSGSGSGTDFTLKISRVAAEDVGLYYCMQRVEFPFTFGQGTKLDIK
B10: PD1-45D6(A/5H9) (antibody, V domains shown)
VH: QVQLVESGGGVVQPGRSLRLSCAASGFTFWTYAMHWVRQAPGKGLEWVAVISYDGNDKYYADSVKGRFTISRDNSKNTLYLQMNSLRAEDTAVYYCVPTTFEYWGQGTLVTVSS
VL: DIVMTQTPLSLPVTPGEPASISCRSSQSLLDSDDGNTYLDWYLQKPGQSPQLLIYTLSHRASGVSDRFSGSGSGTDFTLEISRVEAEDVGVYYCMQRRDFPFTFGQGTKVEIK
B11: PD1-45D6(A/4H6) (antibody, V domains shown)
VH: QVQLVESGGGVVQPGRSLRLSCAASGFTFSSYAMHWVRQAPGKGLEWVAVISYDGNDKYYADSVKGRFTISRDNSKNTLYLQMNSLRAEDTAVYYCVPTTFEYWGQGTLVTVSS
VL: DIVMTQTPLSLPVTPGEPASISCRSSQSLFDSDDGNTYLDWYLQKPGQSPQLLIYTLSHRASGVPDRFSGSGSGTDFTLKISRVEAEDVGLYYCMQRVEFPFTFGQGTKLEIK
B12: PD1-45D6(A/3H4) (antibody, V domains shown)
VH: QVQLVESGGGVVQPGRSLRLSCAASGFTFSSYAMHWVRQVPGKGLEWVAVISYDGNDKYYADSVKGRFTISRDNSKNTLYLQMNSLRAEDTAVYYCVPTTFEYWGQGSQVTVSS
VL: DIVMTQTPLSLPVTPGEPASISCRSSQSLFDSDDGNTYLDWYLQKPGQSPQLLIYTLSHRASGVSDRFSGSGSGTDFTLKISRVEAEDSGIYYCMQRVEFPFTFGQGTKLDIK
B13: PD1-45D6(A/5B12) (antibody, V domains shown)
VH: QVQLVESGGGVVQPGRSLRLSCAASGFTFSVYAMHWVRQAPGKGLEWVAVISYDGNDKYYADSVKGRFTISRDNSKNTLYLQMNSLRAEDTAVYYCVPTTFEYWGQGTLVTVSS
VL: DIVMTQTPLSLPVTPGEAASISCRSSQSLLDSEDGNTYLDWYLQKPGQSPQLLIYTLSHRASGVPDRFSGSGSGTDFTLKISRVEAEDVGIYYCMQRVEFPFTFGQGTKVEIK
B14: PD1-45D6(A/4D4) (antibody, V domains shown)
VH: QVQLVESGGGVVQPGRSLRLSCAASGFTFSSYAMHWVRQAPGKGLEWVAVISYDGNDKYYADSVKGRFTISRDNSKNTLYLQMNSLRAEDTAVYYCVPTTFEYWGQGTLVTVSS
VL: DIVMTQTPLSLPVTPGEPASISCRSSQSLLDSEDGNTYLDWYLQKPGQSPQLLIYTLSHRASGVPDRFSGSGSGTEFNLRISRVEAEDVGIYYCMQRVEFPFTFGQGTKVDIK
B15: PD1-74A11 (antibody, V domains shown)
VH: QVQLVQSGGGVVQPGRSLRLSCAASGFTFSSYAMHWVRQAPGKGLEWVAVISYDGSNKYYADSVKGRFTISRDNSKNTLYLQMNSLRAEDTAVYYCARTTFDYWGQGTLITVSS
VL: DIVMTQTPLSLPVTPGEPASISCRSSQSLFDSDDGNTYLDWYLQKPGQSPQLLIYTLSYRASGVPDRFSGSGSGTDFTLKISRVAAEDVGIYYCMQRVEFPFTFGQGTKVDIK
B16: PD1-45D6(A/3H6) (antibody, V domains shown)
VH: QVQLVESGGGVVQPGRSLRLSCAASGFTFSSYAMHWVRQVPGKGLEWVAVISYDGNDKYYADSVKGRFTISRDNSKNTLYLQMNSLRAEDTAVYYCVPTTFEYWGQGSQVTVSS
VL: DIVMTQTPLSLPVTPGEAASISCRSSQSLLDSEDGNTYLDWYLQKPGQSPQLLIYTLSHRASGVPDRFSGSGSGTDFTLKISRVEAEDVGVYYCMQRVEFPFTFGQGTKLEIK
B17: PD1-45D6(A/5C8) (antibody, V domains shown)
VH: QVQLVESGGGVVQPGRSLRLSCAASGFTFMRYAMHWVRQAPGKGLEWVAVISYDGNDKYYADSVKGRFTISRDNSKNTLYLQMNSLRAEDTAVYYCVPTTFEYWGQGTLVTVSS
VL: DIVMTQSPLSLPVTPGEPASISCRSSQSLLDSEDGNTYLDWYLQKPGQSPQLLIYTLSHRASGVPDRFSGSGSGTDFTLKISRVEAEDVGVYYCMQRVEFPFTFGQGTKLDIK
B18: PD1-45D6(A/4C9) (antibody, V domains shown)
VH: QVQLVESGGGVVQPGRSLRLSCAASGFTFSSYAMHWVRQAPGKGLEWVAVISYDGNDKYYADSVKGRFTISRDNSKNTLYLQMNSLRAEDTAVYYCVPTTFEYWGQGTLVTVSS
VL: DIVMTQTPLSLPVTPGEAASISCRSSQSLLDSEDGNTYLDWYLQKPGQSPQLLIYTLSHRASGVPDRFSGSGSGTDFTLKISRVAAEDVGIYYCMQRVEFPFTFGQGTKLEIK
B19: PD1-75C10 (antibody, V domains shown)
VH: QVQLVESGGGVVQPGRSLRLSCAASGFTFSSYAMHWVRQAPGKGLEWVAVISYDGSNKYYADSVKGRFTISRDNSKNTLYLQMNSLRAEDTAVYYCVPTTFEYWGQGSQVTVSS
VL: DIVMTQTPLSLPVTPGEAASISCRSSQSLLDSEDGNTYLDWYLQKPGQSPQLLIYTLSHRASGVPDRFSGSGSGTDFTLKITRVEAEDVGVYYCMQRIEFPYTFGQGTKLEIK
B20: PD1-45D6(A/5A6) (antibody, V domains shown)
VH: QVQLVESGGGVVQPGRSLRLSCAASGFTFRLYAMHWVRQAPGKGLEWVAVISHDGNDKYYADSVKGRFTISRDNSKNTLYLQMNSLRAEDTAVYYCVPTTFEYWGQGTLVTVSS
VL: DIVMTQTPLSLPVTPGEPASISCRSSQSLLDSEDGNTYLDWYLQKPGQSPQLLIYTLSHRASGVPDRFSGSGSGTDFTLKISRVEAEDVGVYYCMQRIDFPYTFGQGTKLDIK

biological target: human PD-1 (NM_005018.2) over-expressed on cells (human, UniProt Q15116 25-288); assay: cell-based or functional assay
Sequence (Q15116 25-288): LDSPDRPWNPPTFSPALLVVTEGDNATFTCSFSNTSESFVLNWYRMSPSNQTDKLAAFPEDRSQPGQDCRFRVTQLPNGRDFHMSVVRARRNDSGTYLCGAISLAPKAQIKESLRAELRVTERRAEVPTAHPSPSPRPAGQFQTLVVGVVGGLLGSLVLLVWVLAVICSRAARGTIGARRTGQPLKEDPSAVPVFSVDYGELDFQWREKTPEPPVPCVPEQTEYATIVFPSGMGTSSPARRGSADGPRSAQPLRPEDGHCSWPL

Question: With B1 as the binder, how does the “EC50 [nM], PD1/PD-L1 blockade bioassay” value read?
Answer: The value was 1.21 nM.

Question: B2 was tested. Which “EC50 [nM], PD1/PD-L1 blockade bioassay” value did it give?
Answer: The value was 1.76 nM.

Question: B3 was tested. Which “EC50 [nM], PD1/PD-L1 blockade bioassay” value did it give?
Answer: The value was 1.03 nM.

Question: How did the “EC50 [nM], PD1/PD-L1 blockade bioassay” value turn out when B4 was run?
Answer: The value was 0.79 nM.

Question: B5 was tested. Which “EC50 [nM], PD1/PD-L1 blockade bioassay” value did it give?
Answer: Its value is 0.84 nM.

Question: How did the “EC50 [nM], PD1/PD-L1 blockade bioassay” value turn out when B6 was run?
Answer: Its value is 1.01 nM.

Question: How did the “EC50 [nM], PD1/PD-L1 blockade bioassay” value turn out when B7 was run?
Answer: The value was 0.98 nM.

Question: B8 was tested. Which “EC50 [nM], PD1/PD-L1 blockade bioassay” value did it give?
Answer: The value was 0.98 nM.

Question: With B9 as the binder, how does the “EC50 [nM], PD1/PD-L1 blockade bioassay” value read?
Answer: The value was 0.65 nM.

Question: B10 was tested. Which “EC50 [nM], PD1/PD-L1 blockade bioassay” value did it give?
Answer: The value was 2 nM.

Question: How did the “EC50 [nM], PD1/PD-L1 blockade bioassay” value turn out when B11 was run?
Answer: The value was 1.19 nM.

Question: For B12, which “EC50 [nM], PD1/PD-L1 blockade bioassay” value is on record?
Answer: The value was 1.67 nM.

Question: How did the “EC50 [nM], PD1/PD-L1 blockade bioassay” value turn out when B13 was run?
Answer: Its value is 0.8 nM.

Question: For B14, which “EC50 [nM], PD1/PD-L1 blockade bioassay” value is on record?
Answer: The value was 1.74 nM.

Question: How did the “EC50 [nM], PD1/PD-L1 blockade bioassay” value turn out when B15 was run?
Answer: The value was 1.31 nM.

Question: For B16, which “EC50 [nM], PD1/PD-L1 blockade bioassay” value is on record?
Answer: The value was 1.49 nM.

Question: Which “EC50 [nM], PD1/PD-L1 blockade bioassay” value does the source give for B17 here?
Answer: Its value is 1.44 nM.

Question: For B18, which “EC50 [nM], PD1/PD-L1 blockade bioassay” value is on record?
Answer: Its value is 2.72 nM.

Question: With B19 as the binder, how does the “EC50 [nM], PD1/PD-L1 blockade bioassay” value read?
Answer: The value was 0.81 nM.

Question: For B20, which “EC50 [nM], PD1/PD-L1 blockade bioassay” value is on record?
Answer: The value was 0.92 nM.
